Seven molecules from patent US20160272693A1 (ZEALAND PHARMA A S, published 2016) can be followed below.

This assay deals with T1, human amylin receptor 3 (hAMYR3), hCTR2 co-expressed with human receptor activity modifying protein 3 (hRAMP3) (human, UniProt P30988 25-474; O60896 24-148).
T1 sequence (looked up) 1: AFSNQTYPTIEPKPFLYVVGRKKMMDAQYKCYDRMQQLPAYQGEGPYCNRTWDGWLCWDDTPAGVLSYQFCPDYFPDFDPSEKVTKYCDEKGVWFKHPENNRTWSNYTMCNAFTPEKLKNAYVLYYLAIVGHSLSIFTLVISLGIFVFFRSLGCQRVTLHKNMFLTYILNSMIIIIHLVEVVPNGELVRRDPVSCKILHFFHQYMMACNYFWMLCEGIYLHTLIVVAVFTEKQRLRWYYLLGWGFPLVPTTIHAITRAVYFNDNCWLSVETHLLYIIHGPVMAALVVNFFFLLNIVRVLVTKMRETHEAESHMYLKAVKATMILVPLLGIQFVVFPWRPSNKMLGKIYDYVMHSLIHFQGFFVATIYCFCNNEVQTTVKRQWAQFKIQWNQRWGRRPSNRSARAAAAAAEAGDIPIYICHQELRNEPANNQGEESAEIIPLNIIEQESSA
T1 sequence (looked up) 2: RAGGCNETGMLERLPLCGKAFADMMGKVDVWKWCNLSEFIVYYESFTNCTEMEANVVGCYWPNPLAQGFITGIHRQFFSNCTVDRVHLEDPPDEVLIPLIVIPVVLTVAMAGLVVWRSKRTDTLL
In words: cell-based or functional assay.

*1 amine or outer side, *2 acyl side, *3 side chain or, on linkers, in order; H or OH if unused. Bridges are numbered along the chain shown (N, C = ends). [ ]: non-standard residue; d: D form. The star is where a group is joined. C20 diacid = O=C(O)CCCCCCCCCCCCCCCCCCC(=O)*; γGlu = O=C(O)[C@H](CCC(=O)[*:2])N[*:1]; Hyp = O=C(O)[C@@H]1C[C@@H](O)CN1; NMeI = CC[C@H](C)[C@H](NC)C(=O)O; Aad = N[C@@H](CCCC(=O)O)C(=O)O; Sar = CNCC(=O)O

On to {C20 diacid}-[γGlu]RCGTATCATERLAHFLERSSF[Sar]A[NMeI]LSSTEVGSNT[Hyp]-NH2 (disulfide 3-8) [[19CD]-isoGlu-R-C( )-GTAT-C( )-ATERLAHFLERSSF-Gly(Me)-A-Ile(Me)-LSSTEVGSNT-Hyp-NH2 (Compd. 8)], for which the “hAMYR3 EC50 (nM); cAMP induction” value was 0.36 nM.

B1: [19CD]-isoGlu-R-C( )-NTAT-C( )-ATQRLAHFLQRSSF-Gly(Me)-A-Ile(Me)-LSSTEVGS-Aad-T-Hyp-NH2 (Compd. 75) (peptide)
peptide: {C20 diacid}-[γGlu]RCNTATCATQRLAHFLQRSSF[Sar]A[NMeI]LSSTEVGS[Aad]T[Hyp]-NH2
modifications: disulfide 3-8
SMILES: CC[C@H](C)[C@@H](C(=O)N[C@@H](CC(C)C)C(=O)N[C@@H](CO)C(=O)N[C@@H](CO)C(=O)N[C@H](C(=O)N[C@@H](CCC(=O)O)C(=O)N[C@H](C(=O)NCC(=O)N[C@@H](CO)C(=O)N[C@@H](CCCC(=O)O)C(=O)N[C@H](C(=O)N1C[C@H](O)C[C@H]1C(N)=O)[C@@H](C)O)C(C)C)[C@@H](C)O)N(C)C(=O)[C@H](C)NC(=O)CN(C)C(=O)[C@H](Cc1ccccc1)NC(=O)[C@H](CO)NC(=O)[C@H](CO)NC(=O)[C@H](CCCNC(=N)N)NC(=O)[C@H](CCC(N)=O)NC(=O)[C@H](CC(C)C)NC(=O)[C@H](Cc1ccccc1)NC(=O)[C@H](Cc1c[nH]cn1)NC(=O)[C@H](C)NC(=O)[C@H](CC(C)C)NC(=O)[C@H](CCCNC(=N)N)NC(=O)[C@H](CCC(N)=O)NC(=O)[C@@H](NC(=O)[C@H](C)NC(=O)[C@@H]1CSSC[C@H](NC(=O)[C@H](CCCNC(=N)N)NC(=O)CC[C@H](NC(=O)CCCCCCCCCCCCCCCCCCC(=O)O)C(=O)O)C(=O)N[C@@H](CC(N)=O)C(=O)N[C@@H]([C@@H](C)O)C(=O)N[C@@H](C)C(=O)N[C@@H]([C@@H](C)O)C(=O)N1)[C@@H](C)O
As for B1, the “hAMYR3 EC50 (nM); cAMP induction” value came out at 0.26 nM.

B2: [19CD]-isoGlu-R-C( )-NTAT-C( )-ATQRLADFLQRSSF-Gly(Me)-A-Ile(Me)-LSSTEVGSGTP-NH2 (Compd. 80) (peptide)
peptide: {C20 diacid-γGlu}-RCNTATCATQRLADFLQRSSF[Sar]A[NMeI]LSSTEVGSGTP-NH2
modifications: disulfide 2-7
SMILES: CC[C@H](C)[C@@H](C(=O)N[C@@H](CC(C)C)C(=O)N[C@@H](CO)C(=O)N[C@@H](CO)C(=O)N[C@H](C(=O)N[C@@H](CCC(=O)O)C(=O)N[C@H](C(=O)NCC(=O)N[C@@H](CO)C(=O)NCC(=O)N[C@H](C(=O)N1CCC[C@H]1C(N)=O)[C@@H](C)O)C(C)C)[C@@H](C)O)N(C)C(=O)[C@H](C)NC(=O)CN(C)C(=O)[C@H](Cc1ccccc1)NC(=O)[C@H](CO)NC(=O)[C@H](CO)NC(=O)[C@H](CCCNC(=N)N)NC(=O)[C@H](CCC(N)=O)NC(=O)[C@H](CC(C)C)NC(=O)[C@H](Cc1ccccc1)NC(=O)[C@H](CC(=O)O)NC(=O)[C@H](C)NC(=O)[C@H](CC(C)C)NC(=O)[C@H](CCCNC(=N)N)NC(=O)[C@H](CCC(N)=O)NC(=O)[C@@H](NC(=O)[C@H](C)NC(=O)[C@@H]1CSSC[C@H](NC(=O)[C@H](CCCNC(=N)N)NC(=O)CC[C@H](NC(=O)CCCCCCCCCCCCCCCCCCC(=O)O)C(=O)O)C(=O)N[C@@H](CC(N)=O)C(=O)N[C@@H]([C@@H](C)O)C(=O)N[C@@H](C)C(=O)N[C@@H]([C@@H](C)O)C(=O)N1)[C@@H](C)O
Regarding B2, the “hAMYR3 EC50 (nM); cAMP induction” value is 0.28 nM.

B3: [19CD]-isoGlu-R-C( )-NTAT-C( )-ATQRLAHFLQRF-Gly(Me)-A-Ile(Me)-LSSTEVGSGT-Hyp-NH2 (Compd. 79) (peptide)
peptide: {C20 diacid-γGlu}-RCNTATCATQRLAHFLQRF[Sar]A[NMeI]LSSTEVGSGT[Hyp]-NH2
modifications: disulfide 2-7
SMILES: CC[C@H](C)[C@@H](C(=O)N[C@@H](CC(C)C)C(=O)N[C@@H](CO)C(=O)N[C@@H](CO)C(=O)N[C@H](C(=O)N[C@@H](CCC(=O)O)C(=O)N[C@H](C(=O)NCC(=O)N[C@@H](CO)C(=O)NCC(=O)N[C@H](C(=O)N1C[C@H](O)C[C@H]1C(N)=O)[C@@H](C)O)C(C)C)[C@@H](C)O)N(C)C(=O)[C@H](C)NC(=O)CN(C)C(=O)[C@H](Cc1ccccc1)NC(=O)[C@H](CCCNC(=N)N)NC(=O)[C@H](CCC(N)=O)NC(=O)[C@H](CC(C)C)NC(=O)[C@H](Cc1ccccc1)NC(=O)[C@H](Cc1c[nH]cn1)NC(=O)[C@H](C)NC(=O)[C@H](CC(C)C)NC(=O)[C@H](CCCNC(=N)N)NC(=O)[C@H](CCC(N)=O)NC(=O)[C@@H](NC(=O)[C@H](C)NC(=O)[C@@H]1CSSC[C@H](NC(=O)[C@H](CCCNC(=N)N)NC(=O)CC[C@H](NC(=O)CCCCCCCCCCCCCCCCCCC(=O)O)C(=O)O)C(=O)N[C@@H](CC(N)=O)C(=O)N[C@@H]([C@@H](C)O)C(=O)N[C@@H](C)C(=O)N[C@@H]([C@@H](C)O)C(=O)N1)[C@@H](C)O
Consider B3, for which the “hAMYR3 EC50 (nM); cAMP induction” value was 0.23 nM.

B4: [19CD]-isoGlu-R-C( )-GTAT-C( )-ATERLAHFLQRSSF-Gly(Me)-A-Ile(Me)-LSSTEVGSNTP-NH2 (Compd. 78) (peptide)
peptide: {C20 diacid}-[γGlu]RCGTATCATERLAHFLQRSSF[Sar]A[NMeI]LSSTEVGSNTP-NH2
modifications: disulfide 3-8
SMILES: CC[C@H](C)[C@@H](C(=O)N[C@@H](CC(C)C)C(=O)N[C@@H](CO)C(=O)N[C@@H](CO)C(=O)N[C@H](C(=O)N[C@@H](CCC(=O)O)C(=O)N[C@H](C(=O)NCC(=O)N[C@@H](CO)C(=O)N[C@@H](CC(N)=O)C(=O)N[C@H](C(=O)N1CCC[C@H]1C(N)=O)[C@@H](C)O)C(C)C)[C@@H](C)O)N(C)C(=O)[C@H](C)NC(=O)CN(C)C(=O)[C@H](Cc1ccccc1)NC(=O)[C@H](CO)NC(=O)[C@H](CO)NC(=O)[C@H](CCCNC(=N)N)NC(=O)[C@H](CCC(N)=O)NC(=O)[C@H](CC(C)C)NC(=O)[C@H](Cc1ccccc1)NC(=O)[C@H](Cc1c[nH]cn1)NC(=O)[C@H](C)NC(=O)[C@H](CC(C)C)NC(=O)[C@H](CCCNC(=N)N)NC(=O)[C@H](CCC(=O)O)NC(=O)[C@@H](NC(=O)[C@H](C)NC(=O)[C@@H]1CSSC[C@H](NC(=O)[C@H](CCCNC(=N)N)NC(=O)CC[C@H](NC(=O)CCCCCCCCCCCCCCCCCCC(=O)O)C(=O)O)C(=O)NCC(=O)N[C@@H]([C@@H](C)O)C(=O)N[C@@H](C)C(=O)N[C@@H]([C@@H](C)O)C(=O)N1)[C@@H](C)O
For the molecule B4, the “hAMYR3 EC50 (nM); cAMP induction” value was 0.24 nM.

B5: [19CD]-isoGlu-R-C( )-PTAT-C( )-ATERLAHFLQRSSF-Gly(Me)-A-Ile(Me)-LSSTEVGS-Aad-T-Hyp-NH2 (Compd. 76) (peptide)
peptide: {C20 diacid}-[γGlu]RCPTATCATERLAHFLQRSSF[Sar]A[NMeI]LSSTEVGS[Aad]T[Hyp]-NH2
modifications: disulfide 3-8
SMILES: CC[C@H](C)[C@@H](C(=O)N[C@@H](CC(C)C)C(=O)N[C@@H](CO)C(=O)N[C@@H](CO)C(=O)N[C@H](C(=O)N[C@@H](CCC(=O)O)C(=O)N[C@H](C(=O)NCC(=O)N[C@@H](CO)C(=O)N[C@@H](CCCC(=O)O)C(=O)N[C@H](C(=O)N1C[C@H](O)C[C@H]1C(N)=O)[C@@H](C)O)C(C)C)[C@@H](C)O)N(C)C(=O)[C@H](C)NC(=O)CN(C)C(=O)[C@H](Cc1ccccc1)NC(=O)[C@H](CO)NC(=O)[C@H](CO)NC(=O)[C@H](CCCNC(=N)N)NC(=O)[C@H](CCC(N)=O)NC(=O)[C@H](CC(C)C)NC(=O)[C@H](Cc1ccccc1)NC(=O)[C@H](Cc1c[nH]cn1)NC(=O)[C@H](C)NC(=O)[C@H](CC(C)C)NC(=O)[C@H](CCCNC(=N)N)NC(=O)[C@H](CCC(=O)O)NC(=O)[C@@H](NC(=O)[C@H](C)NC(=O)[C@@H]1CSSC[C@H](NC(=O)[C@H](CCCNC(=N)N)NC(=O)CC[C@H](NC(=O)CCCCCCCCCCCCCCCCCCC(=O)O)C(=O)O)C(=O)N2CCC[C@H]2C(=O)N[C@@H]([C@@H](C)O)C(=O)N[C@@H](C)C(=O)N[C@@H]([C@@H](C)O)C(=O)N1)[C@@H](C)O
Consider B5, for which the “hAMYR3 EC50 (nM); cAMP induction” value came to 0.49 nM.

B6: [19CD]-isoGlu-R-C( )-GTAT-C( )-ATERLAHFLQRF-Gly(Me)-A-Ile(Me)-LSSTEVGSNT-Hyp-NH2 (Compd. 77) (peptide)
peptide: {C20 diacid}-[γGlu]RCGTATCATERLAHFLQRF[Sar]A[NMeI]LSSTEVGSNT[Hyp]-NH2
modifications: disulfide 3-8
SMILES: CC[C@H](C)[C@@H](C(=O)N[C@@H](CC(C)C)C(=O)N[C@@H](CO)C(=O)N[C@@H](CO)C(=O)N[C@H](C(=O)N[C@@H](CCC(=O)O)C(=O)N[C@H](C(=O)NCC(=O)N[C@@H](CO)C(=O)N[C@@H](CC(N)=O)C(=O)N[C@H](C(=O)N1C[C@H](O)C[C@H]1C(N)=O)[C@@H](C)O)C(C)C)[C@@H](C)O)N(C)C(=O)[C@H](C)NC(=O)CN(C)C(=O)[C@H](Cc1ccccc1)NC(=O)[C@H](CCCNC(=N)N)NC(=O)[C@H](CCC(N)=O)NC(=O)[C@H](CC(C)C)NC(=O)[C@H](Cc1ccccc1)NC(=O)[C@H](Cc1c[nH]cn1)NC(=O)[C@H](C)NC(=O)[C@H](CC(C)C)NC(=O)[C@H](CCCNC(=N)N)NC(=O)[C@H](CCC(=O)O)NC(=O)[C@@H](NC(=O)[C@H](C)NC(=O)[C@@H]1CSSC[C@H](NC(=O)[C@H](CCCNC(=N)N)NC(=O)CC[C@H](NC(=O)CCCCCCCCCCCCCCCCCCC(=O)O)C(=O)O)C(=O)NCC(=O)N[C@@H]([C@@H](C)O)C(=O)N[C@@H](C)C(=O)N[C@@H]([C@@H](C)O)C(=O)N1)[C@@H](C)O
With B6, the “hAMYR3 EC50 (nM); cAMP induction” value was 0.42 nM.
